Publication PMC2782468 (Nature structural & molecular biology, 2009)

T1: wild-type CBP80 expressed alone in insect cells (human, UniProt Q09161 1-790)
T1 sequence: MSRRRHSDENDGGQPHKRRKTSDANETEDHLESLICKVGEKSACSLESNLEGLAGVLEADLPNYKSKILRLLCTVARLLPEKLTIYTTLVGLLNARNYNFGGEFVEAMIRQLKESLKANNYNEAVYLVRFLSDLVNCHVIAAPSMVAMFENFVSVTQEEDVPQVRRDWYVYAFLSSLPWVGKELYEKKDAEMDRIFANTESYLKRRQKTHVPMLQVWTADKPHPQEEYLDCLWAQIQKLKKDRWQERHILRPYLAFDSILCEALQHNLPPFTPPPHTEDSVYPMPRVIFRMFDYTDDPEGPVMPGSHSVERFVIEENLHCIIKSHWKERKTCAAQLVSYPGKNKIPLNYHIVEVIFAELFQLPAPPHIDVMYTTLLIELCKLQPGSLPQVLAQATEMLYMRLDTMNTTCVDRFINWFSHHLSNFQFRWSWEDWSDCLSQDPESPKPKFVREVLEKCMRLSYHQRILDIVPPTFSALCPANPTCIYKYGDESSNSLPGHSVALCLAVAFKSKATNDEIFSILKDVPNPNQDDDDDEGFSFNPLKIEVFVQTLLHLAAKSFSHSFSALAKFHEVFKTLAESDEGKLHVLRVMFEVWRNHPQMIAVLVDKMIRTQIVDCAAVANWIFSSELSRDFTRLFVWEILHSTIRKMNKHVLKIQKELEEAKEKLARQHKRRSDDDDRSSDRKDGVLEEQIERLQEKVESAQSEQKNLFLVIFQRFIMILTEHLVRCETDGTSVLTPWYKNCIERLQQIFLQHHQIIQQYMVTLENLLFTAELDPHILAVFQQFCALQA


What was measured:
[1] = target: T1, wild-type CBP80 expressed alone in …; test: pull-down
[2] = target: T2, full-length human importin-β1 (human, UniProt Q14974 1-876); test: native gel or EMSA
T2 sequence (Q14974 whole entry): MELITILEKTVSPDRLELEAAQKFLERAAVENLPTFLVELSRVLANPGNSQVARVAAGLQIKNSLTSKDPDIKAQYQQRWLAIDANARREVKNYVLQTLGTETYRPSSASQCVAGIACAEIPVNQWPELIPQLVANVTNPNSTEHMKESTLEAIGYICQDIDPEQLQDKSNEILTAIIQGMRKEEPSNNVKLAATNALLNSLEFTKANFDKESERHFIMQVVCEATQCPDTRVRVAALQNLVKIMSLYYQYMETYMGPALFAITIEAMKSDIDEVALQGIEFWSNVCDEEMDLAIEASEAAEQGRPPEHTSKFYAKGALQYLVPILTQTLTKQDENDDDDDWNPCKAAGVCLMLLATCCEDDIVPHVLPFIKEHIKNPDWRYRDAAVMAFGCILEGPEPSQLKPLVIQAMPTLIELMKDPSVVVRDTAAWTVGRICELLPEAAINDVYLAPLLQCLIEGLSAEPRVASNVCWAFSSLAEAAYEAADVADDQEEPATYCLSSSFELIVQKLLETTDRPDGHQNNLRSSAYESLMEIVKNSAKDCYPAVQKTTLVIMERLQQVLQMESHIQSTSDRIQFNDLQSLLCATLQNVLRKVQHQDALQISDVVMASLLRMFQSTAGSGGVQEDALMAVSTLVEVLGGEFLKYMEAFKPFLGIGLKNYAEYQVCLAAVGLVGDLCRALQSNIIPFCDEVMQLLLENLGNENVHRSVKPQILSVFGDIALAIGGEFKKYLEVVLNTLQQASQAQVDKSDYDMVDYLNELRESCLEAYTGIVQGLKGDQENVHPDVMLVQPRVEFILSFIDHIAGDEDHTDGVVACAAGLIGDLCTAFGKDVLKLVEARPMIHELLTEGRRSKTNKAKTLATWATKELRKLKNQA

[3] = target: T2, full-length human importin-β1; test: pull-down
[4] = target: T3, full-length human importin-α isoform 1 (karyopherin-α2) (human, UniProt P52292 1-529); test: SEC
[5] = target: T3, full-length human importin-α isoform 1 …; test: pull-down

Binder | binding result [1] | binding result [2] | further results
His-tagged CBP20 Δ1–14Δ126–156 (domain or fragment) VELSQYRDQHFRGDNEEQEKLLKKSCTLYVGNLSFYTTEEQIYELFSKSGDIKKIIMGLDKMKKTACGFCFVEYYSRADAENAMRYINGTRLDDRIIRTDWDAGFKEGRQY | binds |  | 
CBP20 Δ126–156 (domain or fragment) MSGGLLKALRSDSYVELSQYRDQHFRGDNEEQEKLLKKSCTLYVGNLSFYTTEEQIYELFSKSGDIKKIIMGLDKMKKTACGFCFVEYYSRADAENAMRYINGTRLDDRIIRTDWDAGFKEGRQY |  | binds | 
His-tagged CBP20 Δ126–156 (domain or fragment) MSGGLLKALRSDSYVELSQYRDQHFRGDNEEQEKLLKKSCTLYVGNLSFYTTEEQIYELFSKSGDIKKIIMGLDKMKKTACGFCFVEYYSRADAENAMRYINGTRLDDRIIRTDWDAGFKEGRQY | binds |  | 
His-tagged CBP20 Δ1–14 (domain or fragment) VELSQYRDQHFRGDNEEQEKLLKKSCTLYVGNLSFYTTEEQIYELFSKSGDIKKIIMGLDKMKKTACGFCFVEYYSRADAENAMRYINGTRLDDRIIRTDWDAGFKEGRQYGRGRSGGQVRDEYRQDYDAGRGGYGKLAQNQ | binds |  | 
CBP20 Δ1–14 (domain or fragment) VELSQYRDQHFRGDNEEQEKLLKKSCTLYVGNLSFYTTEEQIYELFSKSGDIKKIIMGLDKMKKTACGFCFVEYYSRADAENAMRYINGTRLDDRIIRTDWDAGFKEGRQYGRGRSGGQVRDEYRQDYDAGRGGYGKLAQNQ |  | binds | 
His-tagged full-length CBP20 (natural protein) MSGGLLKALRSDSYVELSQYRDQHFRGDNEEQEKLLKKSCTLYVGNLSFYTTEEQIYELFSKSGDIKKIIMGLDKMKKTACGFCFVEYYSRADAENAMRYINGTRLDDRIIRTDWDAGFKEGRQYGRGRSGGQVRDEYRQDYDAGRGGYGKLAQNQ | binds |  | binding result [3]: binds
human nuclear cap-binding complex (CBC), CBP20 and CBP80 co-expressed (complex) chain 1: MSRRRHSDENDGGQPHKRRKTSDANETEDHLESLICKVGEKSACSLESNLEGLAGVLEADLPNYKSKILRLLCTVARLLPEKLTIYTTLVGLLNARNYNFGGEFVEAMIRQLKESLKANNYNEAVYLVRFLSDLVNCHVIAAPSMVAMFENFVSVTQEEDVPQVRRDWYVYAFLSSLPWVGKELYEKKDAEMDRIFANTESYLKRRQKTHVPMLQVWTADKPHPQEEYLDCLWAQIQKLKKDRWQERHILRPYLAFDSILCEALQHNLPPFTPPPHTEDSVYPMPRVIFRMFDYTDDPEGPVMPGSHSVERFVIEENLHCIIKSHWKERKTCAAQLVSYPGKNKIPLNYHIVEVIFAELFQLPAPPHIDVMYTTLLIELCKLQPGSLPQVLAQATEMLYMRLDTMNTTCVDRFINWFSHHLSNFQFRWSWEDWSDCLSQDPESPKPKFVREVLEKCMRLSYHQRILDIVPPTFSALCPANPTCIYKYGDESSNSLPGHSVALCLAVAFKSKATNDEIFSILKDVPNPNQDDDDDEGFSFNPLKIEVFVQTLLHLAAKSFSHSFSALAKFHEVFKTLAESDEGKLHVLRVMFEVWRNHPQMIAVLVDKMIRTQIVDCAAVANWIFSSELSRDFTRLFVWEILHSTIRKMNKHVLKIQKELEEAKEKLARQHKRRSDDDDRSSDRKDGVLEEQIERLQEKVESAQSEQKNLFLVIFQRFIMILTEHLVRCETDGTSVLTPWYKNCIERLQQIFLQHHQIIQQYMVTLENLLFTAELDPHILAVFQQFCALQA chain 2: MSGGLLKALRSDSYVELSQYRDQHFRGDNEEQEKLLKKSCTLYVGNLSFYTTEEQIYELFSKSGDIKKIIMGLDKMKKTACGFCFVEYYSRADAENAMRYINGTRLDDRIIRTDWDAGFKEGRQYGRGRSGGQVRDEYRQDYDAGRGGYGKLAQNQ |  |  | binding result [4]: binds
full-length CBP20 (natural protein) MSGGLLKALRSDSYVELSQYRDQHFRGDNEEQEKLLKKSCTLYVGNLSFYTTEEQIYELFSKSGDIKKIIMGLDKMKKTACGFCFVEYYSRADAENAMRYINGTRLDDRIIRTDWDAGFKEGRQYGRGRSGGQVRDEYRQDYDAGRGGYGKLAQNQ |  | binds | 
apo-CBC reconstituted from His-tagged CBP20 and CBP80 (complex) chain 1: MSGGLLKALRSDSYVELSQYRDQHFRGDNEEQEKLLKKSCTLYVGNLSFYTTEEQIYELFSKSGDIKKIIMGLDKMKKTACGFCFVEYYSRADAENAMRYINGTRLDDRIIRTDWDAGFKEGRQYGRGRSGGQVRDEYRQDYDAGRGGYGKLAQNQ chain 2: MSRRRHSDENDGGQPHKRRKTSDANETEDHLESLICKVGEKSACSLESNLEGLAGVLEADLPNYKSKILRLLCTVARLLPEKLTIYTTLVGLLNARNYNFGGEFVEAMIRQLKESLKANNYNEAVYLVRFLSDLVNCHVIAAPSMVAMFENFVSVTQEEDVPQVRRDWYVYAFLSSLPWVGKELYEKKDAEMDRIFANTESYLKRRQKTHVPMLQVWTADKPHPQEEYLDCLWAQIQKLKKDRWQERHILRPYLAFDSILCEALQHNLPPFTPPPHTEDSVYPMPRVIFRMFDYTDDPEGPVMPGSHSVERFVIEENLHCIIKSHWKERKTCAAQLVSYPGKNKIPLNYHIVEVIFAELFQLPAPPHIDVMYTTLLIELCKLQPGSLPQVLAQATEMLYMRLDTMNTTCVDRFINWFSHHLSNFQFRWSWEDWSDCLSQDPESPKPKFVREVLEKCMRLSYHQRILDIVPPTFSALCPANPTCIYKYGDESSNSLPGHSVALCLAVAFKSKATNDEIFSILKDVPNPNQDDDDDEGFSFNPLKIEVFVQTLLHLAAKSFSHSFSALAKFHEVFKTLAESDEGKLHVLRVMFEVWRNHPQMIAVLVDKMIRTQIVDCAAVANWIFSSELSRDFTRLFVWEILHSTIRKMNKHVLKIQKELEEAKEKLARQHKRRSDDDDRSSDRKDGVLEEQIERLQEKVESAQSEQKNLFLVIFQRFIMILTEHLVRCETDGTSVLTPWYKNCIERLQQIFLQHHQIIQQYMVTLENLLFTAELDPHILAVFQQFCALQA |  |  | binding result [5]: binds
